In article PMC3900686 (2014):

Legend:
Experiment in all cases: ITC; LCMT-1 preloaded with SAH
[1] = molecular target: PP2A catalytic Cα-subunit (free PP2Ac) ( ("mammalian PP2Ac"), UniProt P67775 1-309)
[2] = molecular target: PP2A core enzyme (A–C heterodimer), unmethylated ( |  ("mammalian …, UniProt P30153 1-589; P67775 1-309)
[3] = molecular target: methylated PP2A core enzyme (methylated AC heterodimer) ( |  ("mammalian …, UniProt P30153 1-589)); P67775 1-309, carboxyl methylation of the last leucine residue (Leu-309))
Sequence of methylated PP2A core enzyme (methylated AC heterodimer) ( |  (P30153 whole entry, chain 1 of 2): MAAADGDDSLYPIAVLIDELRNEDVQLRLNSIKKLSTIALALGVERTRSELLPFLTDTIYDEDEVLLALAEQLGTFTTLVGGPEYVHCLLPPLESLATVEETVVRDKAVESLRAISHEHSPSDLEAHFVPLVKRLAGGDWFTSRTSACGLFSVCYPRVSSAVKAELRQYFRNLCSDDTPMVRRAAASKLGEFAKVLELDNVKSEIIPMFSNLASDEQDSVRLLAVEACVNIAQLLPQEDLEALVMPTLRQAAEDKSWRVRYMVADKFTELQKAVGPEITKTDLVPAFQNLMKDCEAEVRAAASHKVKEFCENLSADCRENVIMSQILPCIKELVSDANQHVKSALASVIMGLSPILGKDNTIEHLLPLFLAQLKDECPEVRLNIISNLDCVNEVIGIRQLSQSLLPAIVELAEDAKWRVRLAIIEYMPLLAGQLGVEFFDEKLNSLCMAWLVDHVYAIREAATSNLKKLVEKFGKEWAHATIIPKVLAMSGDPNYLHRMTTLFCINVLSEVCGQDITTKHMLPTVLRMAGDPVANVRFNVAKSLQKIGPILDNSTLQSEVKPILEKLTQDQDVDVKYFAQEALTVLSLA
Sequence of methylated PP2A core enzyme (methylated AC heterodimer) ( |  (P67775 whole entry, chain 2 of 2): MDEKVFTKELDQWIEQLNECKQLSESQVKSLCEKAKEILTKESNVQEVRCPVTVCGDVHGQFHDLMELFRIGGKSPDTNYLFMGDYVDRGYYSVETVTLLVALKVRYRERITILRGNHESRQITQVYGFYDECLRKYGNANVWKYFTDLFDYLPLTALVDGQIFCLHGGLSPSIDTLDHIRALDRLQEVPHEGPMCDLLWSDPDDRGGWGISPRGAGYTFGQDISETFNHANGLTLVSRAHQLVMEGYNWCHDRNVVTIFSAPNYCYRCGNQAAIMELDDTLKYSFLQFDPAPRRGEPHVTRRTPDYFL

Sequence of PP2A catalytic Cα-subunit (free PP2Ac) (P67775 whole entry): as the sequence (P67775 whole entry, chain 2 of 2) above
Sequence of PP2A core enzyme (A–C heterodimer), unmethylated ( |  (P30153 whole entry, chain 1 of 2): as the sequence (P30153 whole entry, chain 1 of 2) above
Sequence of PP2A core enzyme (A–C heterodimer), unmethylated ( |  (P67775 whole entry, chain 2 of 2): as the sequence (P67775 whole entry, chain 2 of 2) above

- Kd [1]: 560 nM
- Kd [2]: 140 nM
- Kd [3]: 630 nM
B1: PP2A-specific leucine carboxyl methyltransferase 1 (LCMT-1) (enzyme)
chain: MATRQRESSITSCCSTSSCDADDEGVRGTCEDASLCKRFAVSIGYWHDPYIQHFVRLSKERKAPEINRGYFARVHGVSQLIKAFLRKTECHCQIVNLGAGMDTTFWRLKDEDLLPSKYFEVDFPMIVTRKLHSIKCKPPLSSPILELHSEDTLQMDGHILDSKRYAVIGADLRDLSELEEKLKKCNMNTQLPTLLIAECVLVYMTPEQSANLLKWAANSFERAMFINYEQVNMGDRFGQIMIENLRRRQCDLAGVETCKSLESQKERLLSNGWETASAVDMMELYNRLPRAEVSRIESLEFLDEMELLEQLMRHYCLCWATKGGNELGLKEITY
